Reference: the supplement of paper PMC11246515
± gives the standard deviation of the averaged measurements.

Test: total protein half-life in vivo (active degradation + dilution); higher = more stable protein
[1] = E. coli NCM3722 delta-clpP delta-lon delta-hslV, growth: N-lim chemostat, doubling time 6 h
[2] = E. coli NCM3722 delta-clpP, growth: N-lim chemostat, doubling time 6 h
[3] = E. coli NCM3722 delta-hslV, growth: N-lim chemostat, doubling time 6 h
[4] = E. coli NCM3722 delta-lon, growth: N-lim chemostat, doubling time 6 h
[5] = E. coli NCM3722 delta-smpB, growth: N-lim chemostat, doubling time 6 h
[6] = wild type E. coli NCM3722, growth: C-lim chemostat, doubling time 12 h
[7] = wild type E. coli NCM3722, growth: N-lim chemostat, doubling time 6 h
[8] = wild type E. coli NCM3722, growth: N-lim chemostat, doubling time 12 h
[9] = wild type E. coli NCM3722, growth: P-lim chemostat, doubling time 6 h
[10] = wild type E. coli NCM3722, growth: P-lim chemostat, doubling time 12 h
[11] = wild type E. coli NCM3722, growth: C-lim chemostat, doubling time 6 h
[12] = wild type E. coli NCM3722, growth: C-lim chemostat, doubling time 3 h

Sequence	total protein half-life in vivo [1] [h]	total protein half-life in vivo [2] [h]	total protein half-life in vivo [3] [h]	total protein half-life in vivo [4] [h]	total protein half-life in vivo [5] [h]	total protein half-life in vivo [6] [h]	total protein half-life in vivo [7] [h]	total protein half-life in vivo [8] [h]	total protein half-life in vivo [9] [h]	total protein half-life in vivo [10] [h]	total protein half-life in vivo [11] [h]	total protein half-life in vivo [12] [h]
MEWIADPSIWAGLITLIVIELVLGIDNLVFIAILAEKLPPKQRDRARVTGLLLAMLMRLLLLASISWLVTLTQPLFSFRSFTFSARDLIMLFGGFFLLFKATMELNERLEGKDSNNPTQRKGAKFWGVVTQIVVLDAIFSLDSVITAVGMVDHLLVMMAAVVIAISLMLMASKPLTQFVNSHPTIVILCLSFLLMIGFSLVAEGFGFVIPKGYLYAAIGFSVMIEALNQLAIFNRRRFLSANQTLRQRTTEAVMRLLSGQKEDAELDAETASMLVDHGNQQIFNPQERRMIERVLNLNQRTVSSIMTSRHDIEHIDLNAPEEEIRQLLERNQHTRLVVTDGDDAEDLLGVVHVIDLLQQSLRGEPLNLRVLIRQPLVFPETLPLLPALEQFRNARTHFAFVVDEFGSVEGIVTLSDVTETIAGNLPNEVEEIDARHDIQKNADGSWTANGHMPLEDLVQYVPLPLDEKREYHTIAGLLMEYLQRIPKPGEEVQVGDYLLKTLQVESHRVQKVQIIPLRKDGEMEYEV	6.68 ± 1.2	6.24 ± 0.2	6.92 ± 0.87	6.34 ± 0.46	6.27 ± 0.67	14.9 ± 0.52	6.24 ± 0.23	12.28 ± 0.022	6.598 ± 0.06	11.1 ± 2	–	–
MEYQHWLREAISQLQASESPRRDAEILLEHVTGRGRTFILAFGETQLTDEQCQQLDALLTRRRDGEPIAHLTGVREFWSLPLFVSPATLIPRPDTECLVEQALARLPEQPCRILDLGTGTGAIALALASERPDCEIIAVDRMPDAVSLAQRNAQHLAIKNIHILQSDWFSALAGQQFAMIVSNPPYIDEQDPHLQQGDVRFEPLTALVAADSGMADIVHIIEQSRNALVSGGFLLLEHGWQQGEAVRQAFILAGYHDVETCRDYGDNERVTLGRYYQ [P0ACC1]	4.72 ± 1.1	3.88	3.35	4.15 ± 0.14	3.23	9.85	–	5.79 ± 0.26	5.35 ± 0.41	9.69 ± 0.87	5.5 ± 0.85	–
MEYQLTLNWPDFLERHWQKRPVVLKRGFNNFIDPISPDELAGLAMESEVDSRLVSHQDGKWQVSHGPFESYDHLGETNWSLLVQAVNHWHEPTAALMRPFRELPDWRIDDLMISFSVPGGGVGPHLDQYDVFIIQGTGRRRWRVGEKLQMKQHCPHPDLLQVDPFEAIIDEELEPGDILYIPPGFPHEGYALENAMNYSVGFRAPNTRELISGFADYVLQRELGGNYYSDPDVPPRAHPADVLPQEMDKLREMMLELINQPEHFKQWFGEFISQSRHELDIAPPEPPYQPDEIYDALKQGEVLVRLGGLRVLRIGDDVYANGEKIDSPHRPALDALASNIALTAENFGDALEDPSFLAMLAALVNSGYWFFEG	5 ± 0.51	5.08 ± 0.63	4.45 ± 0.092	4.25 ± 0.14	4.63 ± 0.28	10.1 ± 1	4.6 ± 0.32	8.11 ± 0.15	6.71 ± 1.1	13 ± 0.99	5.25 ± 0.26	3.12 ± 0.54
MEYRSLTLDDFLSRFQLLRPQINRETLNHRQAAVLIPIVRRPQPGLLLTQRSIHLRKHAGQVAFPGGAVDDTDASAIAAALREAEEEVAIPPSAVEVIGVLPPVDSVTGYQVTPVVGIIPPDLPYRASEDEVSAVFEMPLAQALHLGRYHPLDIYRRGDSHRVWLSWYEQYFVWGMTAGIIRELALQIGVKP	5.44 ± 0.41	2.96 ± 0.13	3.99 ± 0.25	4.38 ± 0.51	3.01 ± 0.22	7.74 ± 0.73	4 ± 0.21	6.98 ± 0.38	4.45 ± 0.2	8.18 ± 0.56	5.03 ± 0.89	2.36 ± 0.8
MFAVSSRRVLPGFTLSLGTSLLFVCLILLLPLSALVMQLAQMSWAQYWEVITNPQVVAAYKVTLLSAFVASIFNGVFGLLMAWILTRYRFPGRTLLDALMDLPFALPTAVAGLTLASLFSVNGFYGEWLAKFDIKVTYTWLGIAVAMAFTSIPFVVRTVQPVLEELGPEYEEAAETLGATRWQSFCKVVLPELSPALVAGVALSFTRSLGEFGAVIFIAGNIAWKTEVTSLMIFVRLQEFDYPAASAIASVILAASLLLLFSINTLQSRFGRRVVGH	7.77	6.57	4.7	4.58	2.4	7.05	4.83 ± 0.59	–	–	10.2 ± 1.2	4.2551 ± 0.0035	3.13 ± 0.25
MFDNLTDRLSRTLRNISGRGRLTEDNVKDTLREVRMALLEADVALPVVREFINRVKEKAVGHEVNKSLTPGQEFVKIVRNELVAAMGEENQTLNLAAQPPAVVLMAGLQGAGKTTSVGKLGKFLREKHKKKVLVVSADVYRPAAIKQLETLAEQVGVDFFPSDVGQKPVDIVNAALKEAKLKFYDVLLVDTAGRLHVDEAMMDEIKQVHASINPVETLFVVDAMTGQDAANTAKAFNEALPLTGVVLTKVDGDARGGAALSIRHITGKPIKFLGVGEKTEALEPFHPDRIASRILGMGDVLSLIEDIESKVDRAQAEKLASKLKKGDGFDLNDFLEQLRQMKNMGGMASLMGKLPGMGQIPDNVKSQMDDKVLVRMEAIINSMTMKERAKPEIIKGSRKRRIAAGCGMQVQDVNRLLKQFDDMQRMMKKMKKGGMAKMMRSMKGMMPPGFPGR [P0AGD7]	5.51 ± 0.064	5.31 ± 0.54	4.4 ± 0.073	5.49 ± 0.42	4.58 ± 0.087	8.739 ± 0.073	4.28 ± 0.099	7.9 ± 0.14	4.6 ± 0.13	9.883 ± 0.071	4.898 ± 0.04	2.85 ± 0.033
MFDSLAKAGKYLGQAAKLMIGMPDYDNYVEHMRVNHPDQTPMTYEEFFRERQDARYGGKGGARCC [P0AAS9]	–	–	–	–	–	1.47	–	–	–	–	1.49 ± 0.45	1.43
